This note sets out measurements from patent US20180251563A1.

This experiment has as its target KIR-Fc. The experiment in a line: phage ELISA, target-Fc against non-specific control.

B1: SEQ ID NO 36 (designed binder)
chain: MGSWYEFYNRLYAIEIRLYALGGSEAELAAFEKEIAAFESELQAYKGKGNPEVERLRVRAAKIRVILQAYRHN
As for B1, the ELISA ratio (target to background) was found to be 4.24.

B2: SEQ ID NO 37 (designed binder)
chain: MGSWLWFKIFLAEIKYFLEALGGSEAELAAFDFEIHAFHVELFAYKGKGNPEVEVLREVAAEIRWDLQAYRHN
Take B2: the ELISA ratio (target to background) came out at 4.17.

B3: SEQ ID NO 35 (designed binder)
chain: MGSWSEFYNRLDAIESRLLALGGSEAELALFEIQIARFEKVLQAYKGKGNPEVEALRGEARAIFAELYAYRHN
Consider B3, for which the ELISA ratio (target to background) came to 8.4.
